Data: paper PMC9352680, “A comprehensive thermodynamic model for RNA binding by the Saccharomyces cerevisiae Pumilio protein PUF4”
Where a chain is given by its changes, count along the chain named. Names and notes keep the numbering of the source.

T1: PUF4 RNA-binding domain (Saccharomyces cerevisiae, UniProt P25339 537-888)
T1 sequence: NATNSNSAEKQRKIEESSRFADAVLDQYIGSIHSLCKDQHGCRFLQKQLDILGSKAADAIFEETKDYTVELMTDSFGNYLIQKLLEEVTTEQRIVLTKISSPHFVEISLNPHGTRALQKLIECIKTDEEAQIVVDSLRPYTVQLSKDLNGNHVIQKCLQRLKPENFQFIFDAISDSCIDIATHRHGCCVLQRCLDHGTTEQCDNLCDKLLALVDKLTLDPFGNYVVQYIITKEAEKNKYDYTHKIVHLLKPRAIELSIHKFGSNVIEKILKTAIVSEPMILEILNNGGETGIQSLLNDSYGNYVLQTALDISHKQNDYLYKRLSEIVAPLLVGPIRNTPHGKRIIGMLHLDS

B1: Ic_S2_P5E.1_K5.1_C5.1_H5.1_A5.1_[A7T]_F5.1_[A10T]_T5.1 (ssRNA)
RNA: UUUGAUUAAUAUGAUAUCGUUCUUUCUUGUAUUUUUUUUCUUUCUCGAUAUCAUAUUAAUCUUU
B2: Ib_S2_P5E.1_K5.1_C5.1_H5.1_[G2T]_A5.1_[A7G]_F5.1_T5.1 (ssRNA)
RNA: B1 RNA with G29U, U34G, U37A
B3: Ia_S2_P5E.1_K5.1_C5.1_H5.1_[T1C]_A5.1_F5.1_T5.1 (ssRNA)
RNA: B1 RNA with U28C, U34A, U37A
B4: Ib_S2_P5E.1_K5.1_C5.1_H5.1_[T1A]_[G2C]_A5.1_F5.1_T5.1 (ssRNA)
RNA: B1 RNA with U28A, G29C, U34A, U37A
B5: Ib_S2_P5E.1_K5.1_C5.1_H5.1_[T1A]_A5.1_[A7G]_F5.1_T5.1 (ssRNA)
RNA: B1 RNA with U28A, U34G, U37A
B6: Ib_S2_P5E.1_K5.1_C5.1_H5.1_A5.1_[T5G]_[A7C]_F5.1_T5.1 (ssRNA)
RNA: B1 RNA with U32G, U34C, U37A
B7: Ic_S2_P5E.1_K5.1_C5.1_H5.1_A5.1_[T6G]_[A7C]_F5.1_T5.1 (ssRNA)
RNA: B1 RNA with U33G, U34C, U37A
B8: Ib_S2_P5E.1_K5.1_C5.1_H5.1_[G2C]_[A4G]_A5.1_F5.1_T5.1 (ssRNA)
RNA: B1 RNA with G29C, A31G, U34A, U37A
B9: Ib_S2_P5E.1_K5.1_C5.1_H5.1_[A4G]_A5.1_[T5C]_F5.1_T5.1 (ssRNA)
RNA: B1 RNA with A31G, U32C, U34A, U37A
B10: Ib_S2_P5E.1_K5.1_C5.1_H5.1_[G2A]_A5.1_[T5G]_F5.1_T5.1 (ssRNA)
RNA: B1 RNA with G29A, U32G, U34A, U37A
B11: Ib_S2_P5E.1_K5.1_C5.1_H5.1_[T3C]_A5.1_[T5G]_F5.1_T5.1 (ssRNA)
RNA: B1 RNA with U30C, U32G, U34A, U37A
B12: Ib_S2_P5E.1_K5.1_C5.1_H5.1_[T1C]_A5.1_[T5C]_F5.1_T5.1 (ssRNA)
RNA: B1 RNA with U28C, U32C, U34A, U37A
B13: Ib_S2_P5E.1_K5.1_C5.1_H5.1_[T3C]_A5.1_[A7G]_F5.1_T5.1 (ssRNA)
RNA: B1 RNA with U30C, U34G, U37A
B14: Ib_S2_P5E.1_K5.1_C5.1_H5.1_A5.1_[T5G]_[A7G]_F5.1_T5.1 (ssRNA)
RNA: B1 RNA with U32G, U34G, U37A
B15: Ib_S2_P5E.1_K5.1_C5.1_H5.1_[A4T]_A5.1_[T5G]_F5.1_T5.1 (ssRNA)
RNA: B1 RNA with A31U, U32G, U34A, U37A
B16: Ib_S2_P5E.1_K5.1_C5.1_H5.1_[T1C]_[A4T]_A5.1_F5.1_T5.1 (ssRNA)
RNA: B1 RNA with U28C, A31U, U34A, U37A
B17: Ib_S2_P5E.1_K5.1_C5.1_H5.1_[T3C]_A5.1_[T6C]_F5.1_T5.1 (ssRNA)
RNA: B1 RNA with U30C, U33C, U34A, U37A
B18: Ia_S2_P5E.1_K5.1_C5.1_H5.1_[G2A]_A5.1_F5.1_T5.1 (ssRNA)
RNA: B1 RNA with G29A, U34A, U37A
B19: Ib_S2_P5E.1_K5.1_C5.1_H5.1_[T1G]_[G2C]_A5.1_F5.1_T5.1 (ssRNA)
RNA: B1 RNA with U28G, G29C, U34A, U37A
B20: Ib_S2_P5E.1_K5.1_C5.1_H5.1_[A4C]_A5.1_[A7T]_F5.1_T5.1 (ssRNA)
RNA: B1 RNA with A31C, U37A
B21: Ib_S2_P5E.1_K5.1_C5.1_H5.1_[A4T]_A5.1_[T6C]_F5.1_T5.1 (ssRNA)
RNA: B1 RNA with A31U, U33C, U34A, U37A
B22: Ib_S2_P5E.1_K5.1_C5.1_H5.1_[A4G]_A5.1_[T6C]_F5.1_T5.1 (ssRNA)
RNA: B1 RNA with A31G, U33C, U34A, U37A
B23: Ib_S2_P5E.1_K5.1_C5.1_H5.1_[T1A]_A5.1_[T6C]_F5.1_T5.1 (ssRNA)
RNA: B1 RNA with U28A, U33C, U34A, U37A
B24: Ia_S2_P5E.1_K5.1_C5.1_H5.1_A5.1_F5.1_[A10T]_T5.1 (ssRNA)
RNA: B1 RNA with U34A
B25: Ib_S2_P5E.1_K5.1_C5.1_H5.1_[T1A]_A5.1_[T5C]_F5.1_T5.1 (ssRNA)
RNA: B1 RNA with U28A, U32C, U34A, U37A
B26: Ib_S2_P5E.1_K5.1_C5.1_H5.1_A5.1_[T5C]_[T6A]_F5.1_T5.1 (ssRNA)
RNA: B1 RNA with U32C, U33A, U34A, U37A
B27: Ib_S2_P5E.1_K5.1_C5.1_H5.1_[A4T]_A5.1_[T6A]_F5.1_T5.1 (ssRNA)
RNA: B1 RNA with A31U, U33A, U34A, U37A
B28: Ib_S2_P5E.1_K5.1_C5.1_H5.1_[A4G]_A5.1_[T6A]_F5.1_T5.1 (ssRNA)
RNA: B1 RNA with A31G, U33A, U34A, U37A
B29: Ib_S2_P5E.1_K5.1_C5.1_H5.1_[G2T]_A5.1_[T6C]_F5.1_T5.1 (ssRNA)
RNA: B1 RNA with G29U, U33C, U34A, U37A

Biological target: T1, PUF4 RNA-binding domain
Assay: Mg; RNA-MaP; 20 mM Na-HEPES pH 7.4, 30 mM KOAc, 0.75 mM MgCl2, 0.1% Tween-20, 5% glycerol, 0.1 mg/mL BSA, 2 mM DTT; 25 C; 0.0125-409.6 nM protein
Details: tags: N-His6-TEV cleaved; C-SNAP kept, Cy3B-labelled; label: tethered on chip by stalled RNA polymerase

| Binder | Kd |
| --- | --- |
| B1 | 18.3 nM |
| B2 | > 2300 nM |
| B3 | 258 nM |
| B4 | 1400 nM |
| B5 | > 2300 nM |
| B6 | 9.58 nM |
| B7 | 6.06 nM |
| B8 | 522 nM |
| B9 | 9.3 nM |
| B10 | 1490 nM |
| B11 | 909 nM |
| B12 | 331 nM |
| B13 | 1600 nM |
| B14 | 9.14 nM |
| B15 | 6.64 nM |
| B16 | 836 nM |
| B17 | 531 nM |
| B18 | 267 nM |
| B19 | 1120 nM |
| B20 | 24.4 nM |
| B21 | 8.06 nM |
| B22 | 8.03 nM |
| B23 | 1680 nM |
| B24 | 7.7 nM |
| B25 | > 2300 nM |
| B26 | 1.95 nM |
| B27 | 28.9 nM |
| B28 | 11.9 nM |
| B29 | 2030 nM |
